# B1: FtsZ-mVenus (FtsZ with the YFP variant mVenus fused to the C terminus) (natural protein, E. coli, UniProt P0A9A6 1-383, looked up)
# chain: MFEPMELTNDAVIKVIGVGGGGGNAVEHMVRERIEGVEFFAVNTDAQALRKTAVGQTIQIGSGITKGLGAGANPEVGRNAADEDRDALRAALEGADMVFIAAGMGGGTGTGAAPVVAEVAKDLGILTVAVVTKPFNFEGKKRMAFAEQGITELSKHVDSLITIPNDKLLKVLGRGISLLDAFGAANDVLKGAVQGIAELITRPGLMNVDFADVRTVMSEMGYAMMGSGVASGEDRAEEAAEMAISSPLLEDIDLSGARGVLVNITAGFDLRLDEFETVGNTIRAFASDNATVVIGTSLDPDMNDELRVTVVATGIGMDKRPEITLVTNKQVQQPVMDRYQQHGMAPLTQEQKPVAKVVNDNAPQTAKEPDYLDIPAFLRKQAD
# Target: the molecule itself
# Assay: thin section electron microscopy
protein,measurement,value
B1,binding result,binds
